Tests used:
[1] = target: endogenous caspase-8 (human (endogenous in BJAB and HaCaT)) (UniProt Q14790); assay: affinity purification with mass spectrometry; native CD95 DISC from c-FLIPS overexpressing HaCaT cells; label-free absolute quantification (TOP 3) by LC-MS/MS, n = 3
[2] = target: endogenous caspase-8 (human (endogenous in BJAB and HaCaT)) (UniProt Q14790); assay: affinity purification with mass spectrometry; native TRAIL DISC from c-FLIPS overexpressing BJAB cells; label-free absolute quantification (TOP 3) by LC-MS/MS, n = 3
[3] = target: T1, endogenous FADD (human (endogenous in Jurkat, BJAB and …, UniProt Q13158 1-208)); assay: affinity purification with mass spectrometry; native TRAIL DISC from control (vector) BJAB cells; label-free absolute quantification (TOP 3) by LC-MS/MS, n = 3; settings: partners not purified
T1 construct: FADD, endogenous; source: endogenous, lysates of caspase-8 null Jurkat, BJAB and HaCaT cells
T1 sequence (looked up): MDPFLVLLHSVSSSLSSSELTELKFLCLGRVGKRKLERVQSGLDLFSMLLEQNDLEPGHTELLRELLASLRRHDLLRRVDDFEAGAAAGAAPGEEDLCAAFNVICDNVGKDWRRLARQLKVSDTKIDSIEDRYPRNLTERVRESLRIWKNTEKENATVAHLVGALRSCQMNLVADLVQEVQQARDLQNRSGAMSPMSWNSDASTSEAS

[4] = target: T1, endogenous FADD; assay: affinity purification with mass spectrometry; native TRAIL DISC from c-FLIPS overexpressing BJAB cells; label-free absolute quantification (TOP 3) by LC-MS/MS, n = 3; settings: partners not purified

| Molecule | stoichiometry N [1] | stoichiometry N [2] | stoichiometry N [3] [fold] | stoichiometry N [4] |
| --- | --- | --- | --- | --- |
| c-FLIPS stably overexpressed in BJAB or HaCaT cells (natural protein) | 1 | 1 | – | – |
| endogenous caspase-8 (natural protein, human (endogenous in BJAB and HaCaT), UniProt Q14790 1-479, looked up, caspase-8, endogenous; procaspase-8 and p43/41 cleavage fragments detected; also called procaspase-8; p43/41 cleavage fragments; source: endogenous, BJAB and HaCaT lysates) MDFSRNLYDIGEQLDSEDLASLKFLSLDYIPQRKQEPIKDALMLFQRLQEKRMLEESNLSFLKELLFRINRLDLLITYLNTRKEEMERELQTPGRAQISAYRVMLYQISEEVSRSELRSFKFLLQEEISKCKLDDDMNLLDIFIEMEKRVILGEGKLDILKRVCAQINKSLLKIINDYEEFSKERSSSLEGSPDEFSNGEELCGVMTISDSPREQDSESQTLDKVYQMKSKPRGYCLIINNHNFAKAREKVPKLHSIRDRNGTHLDAGALTTTFEELHFEIKPHDDCTVEQIYEILKIYQLMDHSNMDCFICCILSHGDKGIIYGTDGQEAPIYELTSQFTGLKCPSLAGKPKVFFIQACQGDNYQKGIPVETDSEEQPYLEMDLSSPQTRYIPDEADFLLGMATVNNCVSYRNPAEGTWYIQSLCQSLRERCPRGDDILTILTEVNYEVSNKDDKKNMGKQMPQPTFTLRKKLVFPSD | – | – | ~6 | ~1 |

— paper PMC4819448, “Co-operative and Hierarchical Binding of c-FLIP and Caspase-8: A Unified Model Defines How c-FLIP Isoforms Differentially Control Cell Fate” (Molecular Cell, 2016)
